In publication PMC5479570:

The substances below were run against CD4-IgG2 (UniProt P01730) (assay: BLI).

First: HIV-1 clade B YU2 gp120 extended core (Coree) (domain or fragment)
Second: HIV-1 clade B YU2 gp120 glycoprotein, ΔV1/V2 (from UniProt P35961 32-498) (natural protein)
The Kd of the first is 2.8-fold lower: 120 pM for the first, 340 pM for the second.

For “HIV-1 clade B YU2 gp120 glycoprotein, ΔV3 (from UniProt P35961 32-498) (natural protein)”, the Kd was 910 pM.

“HIV-1 clade B YU2 gp120 extended core (Coree) (domain or fragment)” and “HIV-1 clade B YU2 gp120 glycoprotein, ΔV1/V2 (from UniProt P35961 32-498) (natural protein)” are within 1.5-fold of each other in koff: 5.9e-05 s⁻¹ for the first, 5.4e-05 s⁻¹ for the second.

In the case of “HIV-1 clade B YU2 gp120 glycoprotein, ΔV3 (from UniProt P35961 32-498) (natural protein)”, the koff is reported as 0.00015 s⁻¹.

First: HIV-1 clade B YU2 gp120 extended core (Coree) (domain or fragment)
Second: HIV-1 clade B YU2 gp120 glycoprotein, ΔV1/V2 (from UniProt P35961 32-498) (natural protein)
The kon of the first is 2.7-fold higher: 474000 M⁻¹ s⁻¹ for the first, 178000 M⁻¹ s⁻¹ for the second.

“HIV-1 clade B YU2 gp120 glycoprotein, ΔV3 (from UniProt P35961 32-498) (natural protein)” gave a kon of 160000 M⁻¹ s⁻¹.
